These results are taken from patent publication US20220064263A1 (published 2022).

One test addresses T1, human C1q (human, UniProt P02745 23-245; P02746 28-253; P02747 29-245).
T1 construct: Bought protein complex; the three subunit chains come from general knowledge; also called C1q complex
Description: biosensor; fusion captured on IL4-bound tips, human C1q at 250 µg/mL. The method, then: (§1) A biosensor binding analysis was performed to determine the binding affinity of C1q to IL13R(ECD)-IL4R(ECD)-wild type canine IgG-B Fc (SEQ ID NO: 271) compared to IL13R(ECD)-IL4R(ECD)-variant canine IgG-B Fc (SEQ ID NO: 202). Briefly canine IL4 was biotinylated and captured to streptavidin sensor tips. Either IL13R(ECD)-IL4R(ECD)-wild type canine IgG-B Fc (25 μg/mL) or IL13R(ECD)-IL4R(ECD)-variant canine IgG-B Fc (25 μg/mL) was complexed to the IL4-bound biosensors. Subsequently, the complex was used to bind human C1q at 250 μg/mL (Catalog No. 204876-1MG; Sigma Aldrich). The ability of human C1q to bind either complex was measured. Reduced binding between human C1q and IL13R(ECD)-IL4R(ECD)-variant canine IgG-B Fc was observed when compared to IL13R(ECD)-IL4R(ECD)-wild type canine IgG-B Fc.

The target in the next test is T2, canine IL4 (canine, UniProt O77762 25-132, biotinylated (site not stated)).
T2 construct: Biotinylated and captured on streptavidin sensor tips
T2 sequence (looked up): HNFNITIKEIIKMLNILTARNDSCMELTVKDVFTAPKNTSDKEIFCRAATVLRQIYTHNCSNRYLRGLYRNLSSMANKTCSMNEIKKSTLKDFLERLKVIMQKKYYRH
Description: biosensor; biotinylated canine IL4 on streptavidin tips, fusion at 25 µg/mL. The method, then: as §1

Numbering of substitutions follows the chain as printed.

T1 sequence (P02745 23-245 limits assumed, chain 1 of 3): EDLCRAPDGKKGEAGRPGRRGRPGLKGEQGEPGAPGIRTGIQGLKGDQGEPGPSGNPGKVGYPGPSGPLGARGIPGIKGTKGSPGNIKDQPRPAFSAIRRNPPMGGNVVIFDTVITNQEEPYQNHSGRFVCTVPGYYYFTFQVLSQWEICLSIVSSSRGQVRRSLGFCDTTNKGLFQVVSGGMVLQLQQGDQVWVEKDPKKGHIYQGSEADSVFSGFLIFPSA
T1 sequence (P02746 28-253 limits assumed, chain 2 of 3): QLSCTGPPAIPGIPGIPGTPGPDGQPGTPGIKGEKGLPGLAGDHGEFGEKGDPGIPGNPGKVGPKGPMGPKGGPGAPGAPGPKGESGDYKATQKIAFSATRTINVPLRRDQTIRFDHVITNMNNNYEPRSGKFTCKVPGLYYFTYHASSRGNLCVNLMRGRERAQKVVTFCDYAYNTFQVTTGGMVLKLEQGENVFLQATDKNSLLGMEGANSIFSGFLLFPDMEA
T1 sequence (P02747 29-245 limits assumed, chain 3 of 3): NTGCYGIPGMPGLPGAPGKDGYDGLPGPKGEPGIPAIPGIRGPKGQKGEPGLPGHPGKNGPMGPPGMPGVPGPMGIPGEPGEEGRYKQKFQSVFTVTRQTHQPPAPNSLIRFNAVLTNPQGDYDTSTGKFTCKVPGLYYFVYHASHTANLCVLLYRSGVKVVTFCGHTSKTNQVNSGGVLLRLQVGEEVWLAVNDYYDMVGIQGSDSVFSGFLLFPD

B1: IL13R(ECD)-IL4R(ECD)-wild type canine IgG-B Fc (Fc fusion)
chain: TETQPPVTNLSVSVENLCTVIWTWDPPEGASPNCTLRYFSHFDNKQDKKIAPETHRSKEVPLNERICLQVGSQCSTNESDNPSILVEKCTPPPEGDPESAVTELQCVWHNLSYMKCTWLPGRNTSPDTNYTLYYWHSSLGKILQCEDIYREGQHIGCSFALTNLKDSSFEQHSVQIVVKDNAGKIRPSFNIVPLTSHVKPDPPHIKRLFFQNGNLYVQWKNPQNFYSRCLSYQVEVNNSQTETNDIFYVEEAKCQNSEFEGNLEGTICFMVPGVLPDTLNTVRIRVRTNKLCYEDDKLWSNWSQAMSIGENTDPTGGGSGSGSVKVLHEPSCFSDYISTSVCQWKMDHPTNCSAELRLSYQLDFMGSENHTCVPENREDSVCVCSMPIDDAVEADVYQLDLWAGQQLLWSGSFQPSKHVKPRTPGNLTVHPNISHTWLLMWTNPYPTENHLHSELTYMVNVSNDNDPEDFKVYNVTYMGPTLRLAASTLKSGASYSARVRAWAQTYNSTWSDWSPSTTWLNYYEPKRENGRVPRPPDCPKCPAPEMLGGPSVFIFPPKPKDTLLIARTPEVTCVVVDLDPEDPEVQISWFVDGKQMQTAKTQPREEQFNGTYRVVSVLPIGHQDWLKGKQFTCKVNNKALPSPIERTISKARGQAHQPSVYVLPPSREELSKNTVSLTCLIKDFFPPDIDVEWQSNGQQEPESKYRTTPPQLDEDGSYFLYSKLSVDKSRWQRGDTFICAVMHEALHNHYTQESLSHSPGK
notes: also called fusion protein comprising wild-type canine IgG-B Fc
For the molecule B1, the binding result with human C1q and in the test with canine IL4 was “binds” throughout.

B2: IL13R(ECD)-IL4R(ECD)-variant canine IgG-B Fc (Fc fusion)
chain: B1 chain with K634R
notes: also called fusion protein comprising variant canine IgG-B Fc K(93)R
As for B2, the binding result with human C1q and in the test with canine IL4 was “binds” each time.
